# Measurements from paper PMC6486907.
# How the values were obtained:
# [1] = target: Sau-TBD (large fragment of Staphylococcus aureus Pol I with the thioredoxin-binding domain of bacteriophage T7 DNA polymerase inserted) (Staphylococcus aureus | bacteriophage T7)
# [2] = target: Sau-TBD (large fragment of Staphylococcus aureus Pol I with the thioredoxin-binding domain of bacteriophage T7 DNA polymerase inserted) (Staphylococcus aureus | bacteriophage T7); remark: listed apart in the source
substance,measurement,setting,value
thioredoxin from E. coli (TrxA) (from UniProt P0AA25 2-109) (natural protein),DNA polymerase activity of Sau-TBD on primed M13mp18 DNA with 1.5 uM thioredoxin (1316 units/mg protein without thioredoxin) (units/mg protein),[1],2860
same,"average primer extension length of Sau-TBD with thioredoxin, as told in the text (differs from Table 3)",[2],74.2 nt
same,"microscopic processivity (PI) of Sau-TBD with thioredoxin, as told in the text (differs from Table 3)",[2],0.986
